Substitutions are numbered along the chain they refer to.
What was measured:
Assay in all cases: cell-based or functional assay
MS1(I17G) = molecular target: T1, MS1(I17G)
T1 sequence (peptide): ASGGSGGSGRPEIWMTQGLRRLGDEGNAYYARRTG

MS1(I17A) = molecular target: T2, MS1(I17A)
T2 sequence (peptide): T1 sequence (peptide) with G26A

Bcl-TEV IRES iADAR = molecular target: Bcl-TEV IRES iADAR
Bad(L) = molecular target: T3, Bad(L)
T3 sequence (peptide): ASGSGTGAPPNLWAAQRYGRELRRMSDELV

[1] = molecular target: T4, BAD (N-terminal BAD peptide)
T4 sequence (peptide): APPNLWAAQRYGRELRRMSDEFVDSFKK

BAD(G) = molecular target: T5, BAD(G)
T5 sequence (peptide): T3 sequence (peptide) with L29G

BAD(V) = molecular target: T6, BAD(V)
T6 sequence (peptide): T3 sequence (peptide) with L29V

Bad(F) = molecular target: T7, Bad(F)
T7 sequence (peptide): T3 sequence (peptide) with L29F

Sequence of Bcl-xL (Q07817 4-198 limits assumed): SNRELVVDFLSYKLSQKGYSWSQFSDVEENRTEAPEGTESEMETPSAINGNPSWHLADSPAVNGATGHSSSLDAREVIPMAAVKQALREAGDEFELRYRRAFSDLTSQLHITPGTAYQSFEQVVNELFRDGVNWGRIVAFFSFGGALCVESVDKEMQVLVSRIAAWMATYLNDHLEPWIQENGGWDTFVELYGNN
Sequence of Mcl-1 (Q07820 172-327 limits assumed): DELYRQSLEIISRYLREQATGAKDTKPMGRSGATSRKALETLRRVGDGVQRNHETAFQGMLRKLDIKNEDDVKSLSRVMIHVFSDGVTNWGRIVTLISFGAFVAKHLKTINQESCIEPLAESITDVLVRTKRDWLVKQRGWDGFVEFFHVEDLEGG

For Mcl-1 (from UniProt Q07820 172-327), the fold change of mNeonGreen/mCherry with S63845, MS1(I17G)-Mcl1 ADAR with unmutated DD, HEK cells, microscopy (intramolecular pair) (MS1(I17G)) was 2.8 fold and the fold change of mNeonGreen/mCherry with S63845, MS1(A)-Mcl1 ADAR with unmutated DD, HEK cells, microscopy (intramolecular pair) (MS1(I17A)) was 12 fold.

In the case of “TEV Protease (from UniProt P04517 2038-2271) (enzyme)”, the fold change of the mean RFU (mNeonGreen-to-mCherry), TEV protease against filler DNA, single-transcript IRES-iADAR, HEK cells, microscopy (Bcl-TEV IRES iADAR) is reported as 17 fold and the fold change of the mean RFU (mNeonGreen-to-mCherry), dual addition of A-1331852 and TEV protease, single-transcript IRES-iADAR, HEK cells, microscopy (Bcl-TEV IRES iADAR) is reported as 32 fold.

With Bcl-xL (from UniProt Q07817 4-198) the Fold Change, 1 µM against 0 µM A-1331852, HEK cells, flow cytometry (intramolecular pair) (Bad(L)) was 23.2 fold, the median ratio of mNeonGreen to mCherry, 0 µM A-1331852, HEK cells, flow cytometry (intramolecular pair) (Bad(L)) was 0.0389 and the median ratio of mNeonGreen to mCherry, 1 µM A-1331852, HEK cells, flow cytometry (intramolecular pair) (Bad(L)) was 0.903. It also gave a fold change of mNeonGreen/mCherry with A-1331852, nBAD-ADAR-cBcl-xL with unmutated DD, HEK cells, microscopy (intramolecular pair) [1] of 5.9 fold, a Fold Change, 1 µM against 0 µM A-1331852, HEK cells, flow cytometry (intramolecular pair) (BAD(G)) of 9.65 fold and a median ratio of mNeonGreen to mCherry, 0 µM A-1331852, HEK cells, flow cytometry (intramolecular pair) (BAD(G)) of 0.1. For the same substance, the median ratio of mNeonGreen to mCherry, 1 µM A-1331852, HEK cells, flow cytometry (intramolecular pair) (BAD(G)) was 0.968, the Fold Change, 1 µM against 0 µM A-1331852, HEK cells, flow cytometry (intramolecular pair) (BAD(V)) was 14.4 fold and the median ratio of mNeonGreen to mCherry, 0 µM A-1331852, HEK cells, flow cytometry (intramolecular pair) (BAD(V)) was 0.0708. The median ratio of mNeonGreen to mCherry, 1 µM A-1331852, HEK cells, flow cytometry (intramolecular pair) (BAD(V)) was 1.02, the Fold Change, 1 µM against 0 µM A-1331852, HEK cells, flow cytometry (intramolecular pair) (Bad(F)) was 37 fold and the median ratio of mNeonGreen to mCherry, 0 µM A-1331852, HEK cells, flow cytometry (intramolecular pair) (Bad(F)) was 0.026. For the same substance, the median ratio of mNeonGreen to mCherry, 1 µM A-1331852, HEK cells, flow cytometry (intramolecular pair) (Bad(F)) was 0.962.
